From PMC3554232
Like-named read-outs stand apart in the source and are kept apart here.

How the values were obtained:
Experiment in all cases: smFRET
yNhp6A [1] = target: T1, yNhp6A (Saccharomyces cerevisiae, UniProt P11632 1-93)
yNhp6A [2] = target: T1, yNhp6A; remark: listed apart in the source
yNhp6A [3] = target: T1, yNhp6A; remark: listed apart in the source
yNhp6A [4] = target: T1, yNhp6A; remark: listed apart in the source

T1 sequence (P11632 whole entry): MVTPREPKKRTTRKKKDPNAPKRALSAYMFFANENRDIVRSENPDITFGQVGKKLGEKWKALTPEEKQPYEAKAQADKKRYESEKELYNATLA

B1: linear_18a (dsDNA)
DNA 1: TGGCGACGGCAGCGAGGC
DNA 2: GCCTCGCTGCCGTCGCCATTTTTTTTTTTTTTT
**Q.** Which Kd (yNhp6A [1]) does the source give for B1 here?
**A.** ~1 nM

B2: linear_18b (dsDNA)
DNA 1: TGGTTATATCATCTAGGC
DNA 2: GCCTAGATGATATAACCATTTTTTTTTTTTTTT
**Q.** Which binding signal (yNhp6A [2]) does the source give for B2 here?
**A.** ~2 fold affinity vs linear_18a

B3: bulge_18a (dsDNA)
DNA 1: TGGCGACGGAACAGCGAGGC
DNA 2: B1 DNA 2
**Q.** For B3, which binding signal (yNhp6A [3]) is on record?
**A.** ~2 fold kon vs linear_18a

B4: linear_15a (dsDNA)
DNA 1: CGACGGCAGCGAGGC
DNA 2: B1 DNA 2
**Q.** Does B4 bind (yNhp6A [4])?
**A.** binds

B5: bulge_15a (dsDNA)
DNA 1: CGACGGCAAAGCGAGGC
DNA 2: B1 DNA 2
**Q.** Does B5 bind (yNhp6A [4])?
**A.** binds
